From the supplement of paper PMC5998384

Legend:
HeLa Kyoto [1] = assay: thermal stability score vs G1/S (z-score of summed log2 fold changes over temperatures); higher = more thermally stable than in G1/S
HeLa Kyoto [2] = assay: melting temperature (median over replicates), in situ; higher = more thermally stable
HeLa Kyoto [3] = assay: solubility change mitosis vs G1/S (difference of NP-40 vs SDS log2 ratios) (log2 ratio difference); higher = more soluble in mitosis
HeLa Kyoto [4] = assay: solubility in G1/S (NP-40 vs SDS abundance) (log2 ratio); higher = more soluble; conditions: cell cycle stage: G1/S
[5] = cell cycle stage: early G1 (4.5 h after nocodazole release)
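For melting temperature (median over replicates), in situ in this document: HeLa Kyoto cells synchronized by double thymidine or nocodazole block, proteins quantified by TMT10plex mass spectrometry, three independent biological replicates.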
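For solubility change mitosis vs G1/S (difference of NP-40 vs SDS log2 ratios) in this document: synchronized HeLa Kyoto cells (double thymidine block for G1/S, nocodazole release for mitosis), protein amounts in NP-40 versus SDS lysates quantified by mass spectrometry, three biological replicates.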
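For solubility in G1/S (NP-40 vs SDS abundance) in this document: HeLa Kyoto cells arrested at G1/S by double thymidine block, proteins quantified by TMT10plex mass spectrometry in mild NP-40 versus SDS extracts, three biological replicates.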
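For thermal stability score vs G1/S (z-score of summed log2 fold changes over temperatures) in this document: synchronized HeLa Kyoto cells, proteins quantified by TMT10plex mass spectrometry, three biological replicates, mitosis taken 0.5 h after nocodazole release, G1/S directly after double thymidine block.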

Sequence	thermal stability score (HeLa Kyoto [1]; [5])	thermal stability score (HeLa Kyoto [1]; cell cycle stage: mitosis)	melting temperature (HeLa Kyoto [2]; cell cycle stage: G1/S) [°C]	melting temperature (HeLa Kyoto [2]; cell cycle stage: mitosis) [°C]	solubility change mitosis (log2) (HeLa Kyoto [3])	solubility in G1/S (log2) (HeLa Kyoto [4])
MAEEEVAKLEKHLMLLRQEYVKLQKKLAETEKRCALLAAQANKESSSESFISRLLAIVADLYEQEQYSDLKIKVGDRHISAHKFVLAARSDSWSLANLSSTKELDLSDANPEVTMTMLRWIYTDELEFREDDVFLTELMKLANRFQLQLLRERCEKGVMSLVNVRNCIRFYQTAEELNASTLMNYCAEIIASHWDDLRKEDFSSMSAQLLYKMIKSKTEYPLHKAIKVEREDVVFLYLIEMDSQLPGKLNEADHNGDLALDLALSRRLESIATTLVSHKADVDMVDKSGWSLLHKGIQRGDLFAATFLIKNGAFVNAATLGAQETPLHLVALYSSKKHSADVMSEMAQIAEALLQAGANPNMQDSKGRTPLHVSIMAGNEYVFSQLLQCKQLDLELKDHEGSTALWLAVQHITVSSDQSVNPFEDVPVVNGTSFDENSFAARLIQRGSHTDAPDTATGNCLLQRAAGAGNEAAALFLATNGAHVNHRNKWGETPLHTACRHGLANLTAELLQQGANPNLQTEEALPLPKEAASLTSLADSVHLQTPLHMAIAYNHPDVVSVILEQKANALHATNNLQIIPDFSLKDSRDQTVLGLALWTGMHTIAAQLLGSGAAINDTMSDGQTLLHMAIQRQDSKSALFLLEHQADINVRTQDGETALQLAIRNQLPLVVDAICTRGADMSVPDEKGNPPLWLALANNLEDIASTLVRHGCDATCWGPGPGGCLQTLLHRAIDENNEPTACFLIRSGCDVNSPRQPGANGEGEEEARDGQTPLHLAASWGLEETVQCLLEFGANVNAQDAEGRTPIHVAISSQHGVIIQLLVSHPDIHLNVRDRQGLTPFACAMTFKNNKSAEAILKRESGAAEQVDNKGRNFLHVAVQNSDIESVLFLISVHANVNSRVQDASKLTPLHLAVQAGSEIIVRNLLLAGAKVNELTKHRQTALHLAAQQDLPTICSVLLENGVDFAAVDENGNNALHLAVMHGRLNNIRVLLTECTVDAEAFNLRGQSPLHILGQYGKENAAAIFDLFLECMPGYPLDKPDADGSTVLLLAYMKGNANLCRAIVRSGARLGVNNNQGVNIFNYQVATKQLLFRLLDMLSKEPPWCDGSYCYECTARFGVTTRKHHCRHCGRLLCHKCSTKEIPIIKFDLNKPVRVCNICFDVLTLGGVS [ANKFY1]	0.358	1.34	48.8	49.3	-0.175	-0.0647
MAEFTSYKETASSRHLRFKLQSLSRRLDELEEATKNLQKAEDELLDLQDKVIQAEGSNSSMLAEIEVLRQRVLRIEGKDEEIKRAEDLCRLMKEKLEEEENLTRELKSEIERLQKRMAELEKLEEAFSRSKNDCTQLCLSLNEERNLTKKISSELEMLRVKVKELESSEDRLDKTEQSLASELEKLKSLTLSFVSERKYLNEKEKENEKLIKELTQKLEQNKKMNRDYTRNASNLERNDLRIEDGISSTLPSKESRRKGGLDYLKQVENETRNKSENEKNRNQEDNKVKDLNQEIEKLKTQIKHFESLEEELKKMKSKNNDLQDNYLSEQNKNKLLASQLEEIKLQIKKQKELENGEVEGEDAFLSSKGRHERTKFRGHGSEASVSKHTARELSPQHKRERLRNREFALNNENYSLSNRQVSSPSFTNRRAAKASHMGVSTDSGTQETKKTEDRFVPGSSQSEGKKSREQPSVLSRYPPAAQEHSKAWKGTSKPGTESGLKGKVEKTTRTFSDTTHGSVPSDPLGRADKASDTSSETVFGKRGHVLGNGSQVTQAANSGCSKAIGALASSRRSSSEGLSKGKKAANGLEADNSCPNSKAPVLSKYPYSCRSQENILQGFSTSHKEGVNQPAAVVMEDSSPHEALRCRVIKSSGREKPDSDDDLDIASLVTAKLVNTTITPEPEPKPQPNSREKAKTRGAPRTSLFENDKDAGMENESVKSVRASTNTMELPDTNGAGVKSQRPFSPREALRSRAIIKPVIVDKDVKKIMGGSGTETTLEKQKPVSKPGPNKVTSSITIYPSDSSSPRAAPGEALRERHTSTSNIQVGLAELTSVSNHVSSPFELSIHKHDITLQLAEAERMADGPLKDRPETVVSRSSIIIKPSDPVERNSHAPPAETIRWKSHSAPSEVGFSDARHVTVRNAWKSRRDLKSLEDPPTRIGKNVESTNSNAYTQRSSTDFSELEQPRSCLFEQGTRRVGPSSGDAPEPSSRRTQSSLTVSEVLTRRNRVGDTITVAAWNHSASMEEEGEDCTLSVYRQLHNSLDPSELPGKQGLPESGRVRAEERLRPTRPCAEEN [LUZP1]	0.392	0.722	51.8	52.3	0.14	-0.781
MAEGGAADLDTQRSDIATLLKTSLRKGDTWYLVDSRWFKQWKKYVGFDSWDKYQMGDQNVYPGPIDNSGLLKDGDAQSLKEHLIDELDYILLPTEGWNKLVSWYTLMEGQEPIARKVVEQGMFVKHCKVEVYLTELKLCENGNMNNVVTRRFSKADTIDTIEKEIRKIFSIPDEKETRLWNKYMSNTFEPLNKPDSTIQDAGLYQGQVLVIEQKNEDGTWPRGPSTPKSPGASNFSTLPKISPSSLSNNYNNMNNRNVKNSNYCLPSYTAYKNYDYSEPGRNNEQPGLCGLSNLGNTCFMNSAIQCLSNTPPLTEYFLNDKYQEELNFDNPLGMRGEIAKSYAELIKQMWSGKFSYVTPRAFKTQVGRFAPQFSGYQQQDCQELLAFLLDGLHEDLNRIRKKPYIQLKDADGRPDKVVAEEAWENHLKRNDSIIVDIFHGLFKSTLVCPECAKISVTFDPFCYLTLPLPMKKERTLEVYLVRMDPLTKPMQYKVVVPKIGNILDLCTALSALSGIPADKMIVTDIYNHRFHRIFAMDENLSSIMERDDIYVFEININRTEDTEHVIIPVCLREKFRHSSYTHHTGSSLFGQPFLMAVPRNNTEDKLYNLLLLRMCRYVKISTETEETEGSLHCCKDQNINGNGPNGIHEEGSPSEMETDEPDDESSQDQELPSENENSQSEDSVGGDNDSENGLCTEDTCKGQLTGHKKRLFTFQFNNLGNTDINYIKDDTRHIRFDDRQLRLDERSFLALDWDPDLKKRYFDENAAEDFEKHESVEYKPPKKPFVKLKDCIELFTTKEKLGAEDPWYCPNCKEHQQATKKLDLWSLPPVLVVHLKRFSYSRYMRDKLDTLVDFPINDLDMSEFLINPNAGPCRYNLIAVSNHYGGMGGGHYTAFAKNKDDGKWYYFDDSSVSTASEDQIVSKAAYVLFYQRQDTFSGTGFFPLDRETKGASAATGIPLESDEDSNDNDNDIENENCMHTN [USP15]	-0.274	0.549	49.8	49.9	-0.118	0.00479
MAEGNTLISVDYEIFGKVQGVFFRKHTQAEGKKLGLVGWVQNTDRGTVQGQLQGPISKVRHMQEWLETRGSPKSHIDKANFNNEKVILKLDYSDFQIVK [ACYP1]	0.389	-1.31	52.3	52.7	-0.0383	0.223
